Values joined by “and” are separate entries in the source; they are usually repeats but may differ in a detail not shown here. Equal values may be shown once.
How the values were obtained:
[1] = target: Solanum lycopersicum (tomato) NRC2, full-length, purified from insect cells (Solanum lycopersicum (tomato)); test: cryo-EM structure; apparently dimeric SlNRC2 specimen, 0.7 mg ml^-1; dimer at 2.84 Å and tetramer at 3.17 Å from one data set, C2 symmetry
[2] = target: Solanum lycopersicum (tomato) NRC2, full-length, purified from insect cells (Solanum lycopersicum (tomato)); test: SEC; gel filtration of purified SlNRC2 after removal of MBP; Buffer E (10 mM Tris-HCl pH 8.0, 150 mM NaCl, 1 mM dithiothreitol); Superdex 200 Increase 10/300 GL
[3] = target: SlNRC2-Twin-Strep-HA (Solanum lycopersicum (tomato)); test: native gel or EMSA; Blue Native-PAGE (3-12% Bis-Tris) of SlNRC2-Twin-Strep-HA variants eluted from Strep-Tactin XT resin out of nrc2/3/4 N. benthamiana leaf extract; immunoblot

stoichiometry N [1] | stoichiometry N [2] | stoichiometry N [3] | Substance
2 and 4 | 2 | – | Solanum lycopersicum (tomato) NRC2, full-length, purified from insect cells (natural protein)
– | – | 2 and 4 | SlNRC2-Twin-Strep-HA (natural protein)

Source: article PMC11338831
